Assays:
[1] = cited from earlier work
[2] = FTC screening assay: EIA on FTC-peptide coated plates with competition by free FTC; format: binding; details: supernatant incubated with free FTC
Protocol: (§1) An assay was developed to screen the Mabs for reactivity to the FTC conjugates. Microtiter plates were coated with the following reagents: FTC-peptide-dextran, FTC-peptide, FTC-peptide-LPH, FTC-peptide-BSA, FTC heptanoic acid, peptide only, peptide-LPH, peptide-BSA, BSA, LPH, and normal mouse serum (NMS). All compounds were diluted into sodium bicarbonate buffer, pH 9.6, to a concentration of 5 ug/ml; NMS was diluted 1:15. One hundred microliters of each solution was added to a column of the microtiter plate such that each row of the plate allowed the testing of a single clonal supernatant against all of the compounds in a single run. Plates were incubated at 4° C. overnight and then washed 3× with phosphate-buffered saline (PBS) containing 0.05% Tween 20 (PBS-T). Plates were blocked with PBS containing 0.5% nonfat dry milk for 1 hour at 37° C., washed 3×, and dried at 37° C. for 30 minutes. […]
(§2) Clonal supernatants (100 ul) were added to the appropriate wells and incubated at 37° C. for 1 hr. […] Absorbance was measured at 450 nm with a 630 nm reference.
(§3) Persistently reactive clones were further tested using FTC-peptide coated plates. […] Antibodies that yielded a reduction in absorbance versus the sample containing no FTC were selected for optimization in a FTC detection assay.

[3] = test system: carrier proteins (LPH, BSA); assay: FTC screening assay: EIA on plates coated with carrier proteins; format: binding; details: plates coated at 5 ug/ml
Protocol: as §1, §2, §3

[4] = Competitive indirect EIA, reactivity of 5D2 to naturally occurring structural analogs; format: binding; details: cytidine, cysotine, deoxycytidine, adenine, adenosine, deoxyadenosine, guanine, guanosine, deoxyguanosine, thymine, 5-methyluridine, thymidine, uracil, uridine, deoxyuridine; 12 to 1,000 ug/ml
Text: Because FTC is an analog of cytidine, a competitive indirect EIA was used to evaluate the reactivity of 5D2 to naturally occurring structural analogs consisting of nitrogenous nucleic acid bases, ribonucleosides, and deoxyribonucleosides, including cytidine, cysotine, deoxycytidine, adenine, adenosine, deoxyadenosine, guanine, guanosine, deoxyguanosine, thymine, 5-methyluridine, thymidine, uracil, uridine, and deoxyuridine. For the competitive assay, the concentrations of these analogs ranged from 12 to 1,000 ug/ml which is similar to the range of FTC found in urine. Reactivity was not detected to all of these naturally occurring analogs using this EIA.

[5] = Cross-reactivity test of monoclonal antibody 5D2: FTC; format: binding
Protocol: (§4) The monoclonal antibody 5D2 was tested for cross-reactivity. 5D2 was determined to be specific for FTC, and to not bind to the following compounds: […]

[6] = Cross-reactivity test of monoclonal antibody 5D2: related compounds; format: binding; details: Lamivudine (3TC), FTC-Triphosphate, FTC-Diphosphate, Cytidine, Deoxycytidine, Deoxyuridine, Guanosine, Deoxyguanosine, Deoxyadenosine, Adenosine, Thymidine, Uridine, 5-Methyluridine
Protocol: as §4

Molecule | concentration found in serum or plasma ([1]; serum or plasma) | concentration excreted unchanged in urine ([1]; urine) | reactivity with FTC (reduction in absorbance versus sample containing no FTC) [2] | reactivity with the carrier proteins [3] | reactivity to naturally occurring analogs [4] | specificity for FTC [5] | binding to related compounds (cross-reactivity) [6]
Nc1nc(=O)n([C@@H]2CS[C@H](CO)O2)cc1F [FTC] | 1 to 300 ng/mL | 1000 to 500000 ng/mL | – | – | – | – | –
5D2: mouse IgG2b kappa monoclonal antibody that specifically binds FTC; heavy chain SEQ ID NO: 1, light chain SEQ ID NO: 2 (antibody, listed as Mus musculus) heavy: QVQLQQPGAELVKPGASVKVSCKASGYTFTSYWMHWVKQRPGQGLEWIGRIHLSDSDTNYNQNFKDKATLTVDKSSRTAHMHLSSLTSADSAVYYCAMGGTFQSNYDTYWGQGTLVTVSAAKTTPPSVYPLAPGCGDTTGSSVTLGCLVKGYFPESVTVTWNSGSLSSSVHTFPALLQSGLYTMSSSVTVPSSTWPSQTVTCSVAHPASSTTVDKKLEPSGPISTINPCPPCKECHKCPAPNLEGGPSVFIFPPNIKDVLMISLTPKVTCVVVDVSEDDPDVRISWFVNNVEVHTAQTQTHREDYNSTIRVVSALPIQHQDWMSGKEFKCKVNNKDLPSPIERTISKIKGLVRAPQVYILPPPAEQLSRKDVSLTCLVVGFNPGDISVEWTSNGHTEENYKDTAPVLDSDGSYFIYSKLDIKTSKWEKTDSFSCNVRHEGLKNYYLKKTISRSPGK light: DIQMTQSPASLSASVGETVTITCRASGNIHNYLAWYQQKQGKSPQLLVYNAKTLTDGVPSRFSGSGSGTQYSLKINSLQPEDFGNYYCQHFLYTPYTFGGGTKLEMRRADAAPTVSIFPPSSEQLTSGGASVVCFLNNFYPKDINVKWKIDGSERQNGVLNSWTDQDSKDSTYSMSSTLTLTKDEYERHNSYTCEATHKTSTSPIVKSFNRNEC | – | – | competitively reactive | did not react | not detected | specific | not bind

From patent publication US11186651B2, “Monoclonal antibody for the detection of the antiretroviral drug emtricitabine (FTC, 2′,3′-dideoxy-5-fluoro-3′-thiacytidine)” (THE UNITED STATES OF AMERICA, AS REPRESENTED BY THE …, priority 2018, dated 2021)
